Patent US20250129140A1 (ICAHN SCHOOL OF MEDICINE AT MOUNT SINAI, published 2025)

What was measured:
[1] = biological target: T1, gH/gL of HCMV strain AD169 (on virus AD169 and on reporter virus AD169R) (human cytomegalovirus (strain AD169), UniProt P12824 24-743; P16832 31-278); assay: cell-based or functional assay
[2] = biological target: T2, gH/gL of HCMV strain TB40/E (on virus) (human cytomegalovirus (strain TB40/E)); assay: cell-based or functional assay
[3] = biological target: T1, gH/gL of HCMV strain AD169 (on virus …); assay: cell-based or functional assay; remark: listed apart in the source
[4] = biological target: T2, gH/gL of HCMV strain TB40/E (on virus); assay: cell-based or functional assay; remark: listed apart in the source
[5] = biological target: T1, gH/gL of HCMV strain AD169 (on virus …); assay: cell-based or functional assay; remark: listed apart in the source
[6] = biological target: gH/gL of HCMV strain TR (on virus) (human cytomegalovirus (strain TR)); assay: cell-based or functional assay
[7] = biological target: gH/gL of HCMV strain Towne (on virus) (human cytomegalovirus (strain Towne), UniProt P17176 30-742); assay: cell-based or functional assay
[8] = biological target: T2, gH/gL of HCMV strain TB40/E (on virus); assay: cell-based or functional assay; remark: listed apart in the source
[9] = biological target: T1, gH/gL of HCMV strain AD169 (on virus …); assay: cell-based or functional assay; remark: listed apart in the source
[10] = biological target: T3, recombinant HCMV pentamer (strain VR1814) consisting of gH, gL, UL128, UL130 and UL131A (human cytomegalovirus (strain VR1814)); assay: BLI (Octet RED); antibody captured on anti-mouse Fc (AMC) biosensor, recombinant pentamer 100 µg/mL in solution; 1:1 model
T3 construct: also called recombinant pentamer; Native Antigen CMV-PENT-100

[11] = biological target: T1, gH/gL of HCMV strain AD169 (on virus …); assay: flow cytometry on ARPE-19 cells infected with AD169R (GFP reporter), 6 dpi, antibody 2 µg/mL, anti-mouse AF647 secondary
[12] = biological target: gH/gL of HCMV strain AD169 (on virus AD169 and on reporter virus AD169R) (human cytomegalovirus (strain AD169), UniProt P12824 24-743; P16832 31-278); assay: as above; remark: listed apart in the source

Sequence of gH/gL of HCMV strain Towne (on virus) (P17176 30-742): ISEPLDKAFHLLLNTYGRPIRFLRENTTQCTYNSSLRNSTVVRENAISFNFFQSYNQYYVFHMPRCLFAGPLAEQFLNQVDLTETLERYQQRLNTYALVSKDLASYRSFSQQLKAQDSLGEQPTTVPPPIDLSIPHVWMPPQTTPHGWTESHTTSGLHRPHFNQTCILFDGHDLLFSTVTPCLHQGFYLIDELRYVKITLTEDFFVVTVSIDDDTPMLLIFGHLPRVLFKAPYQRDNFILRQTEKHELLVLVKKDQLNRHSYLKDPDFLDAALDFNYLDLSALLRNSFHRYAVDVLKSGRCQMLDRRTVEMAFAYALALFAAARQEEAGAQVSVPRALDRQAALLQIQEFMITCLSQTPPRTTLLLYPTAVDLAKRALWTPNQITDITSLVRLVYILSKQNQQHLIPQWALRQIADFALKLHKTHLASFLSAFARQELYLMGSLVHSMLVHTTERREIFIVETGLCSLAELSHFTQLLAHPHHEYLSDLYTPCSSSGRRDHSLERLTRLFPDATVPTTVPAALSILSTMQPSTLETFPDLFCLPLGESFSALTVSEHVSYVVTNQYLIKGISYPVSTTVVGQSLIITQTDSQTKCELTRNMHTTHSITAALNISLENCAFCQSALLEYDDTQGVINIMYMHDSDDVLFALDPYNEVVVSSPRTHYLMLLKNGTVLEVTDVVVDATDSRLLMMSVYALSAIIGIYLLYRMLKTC

| Binder | neutralization of BADrUL131-C4 infection at the highest concentrations [1] [%] | IC50(ARPE-19) TB40/E, virus neutralization [2] [µg/mL] | IC50(HTR-svNeo) TB40/E, virus neutralization [2] [µg/mL] | IC50(ARPE-19) AD169R, virus neutralization [3] [µg/mL] | IC50(HTR-svNeo) AD169R, virus neutralization [3] [µg/mL] | IC50(MRC5/NHDF) TB40/E, virus neutralization [4] [µg/mL] | IC50(MRC5/NHDF) AD169, virus neutralization [5] [µg/mL] | IC50(MRC5/NHDF) AD169R, virus neutralization [5] [µg/mL] | IC50(MRC5/NHDF) TR, virus neutralization [6] [µg/mL] | IC50(MRC5/NHDF) Towne, virus neutralization [7] [µg/mL] | IC50(THP-1) TB40/E, virus neutralization [8] [µg/mL] | IC50(THP-1) AD169R, virus neutralization [9] [µg/mL] | Kd [10] [nM] | koff [10] [s⁻¹] | kon [10] [M⁻¹ s⁻¹] | Q2, percent of cells GFP+ and Alexa Fluor 647+ [11] [%] | Q2, percent of cells GFP+ and Alexa Fluor 647+ [12] [%] | IC50 of infection, AD169R neutralization (murine constant regions) [1] [µg/mL] |
| --- | --- | --- | --- | --- | --- | --- | --- | --- | --- | --- | --- | --- | --- | --- | --- | --- | --- | --- |
| 13G1 (antibody, V domains shown, also called 13G1 (ms); anti-gH mAb 13G1) VH: QVTLKESGPVLVKPTETLTLTCTVSGFSLYNARMGVTWIRQPPGKALEWLAHIFSNDERSYTSSLKNRLTISKDTSKSQVVLTMTNMDPVDTATYYCARIDYSNYIGNWFDPWGQGTLVTVSS VL: DIQMTQSPSSLSASVGDRVTITCRASQSISNYLNWYQQKPGKAPKLLIYAASSLQGGVPSRFSGSGSGTDFTLTISSLQPEDFTTYYCQQSYSTPFTFGGGTKVEIK | > 90 | 1.01 | 1.12 | 1.03 | 1.82 | 0.89 | 15.9 | 0.58 | 3.26 | 1.09 | 0.02 | 0.03 | 5.05 | 6.51e-05 | 12900 | 0.89 |  |  |
| 9A12 (antibody, V domains shown, also called 9A12 (ms); anti-gH mAb 9A12) VH: EVQLVESGGVLVQPGGSLRLSCAASGFTFSSHEMNWVRQAPGKGLEWISYISSTGSTIYDADSVKGRFTISRDNAKNSLYLQMNSLRAEDTAVYYCARSSGWYRNYSYGMDVWGQGTTVTVSS VL: DIQMAQSPSSLSASVGDRVTITCRASQGIYNYLAWFQQKPGKAPKSLIYAASSLQTGVPSKFSGSGSGTDFTLTISNLQPEDFATYYCQQYNSFPRTFGQGTKVEIK | > 90 | 1.1 | 0.72 | 1.28 | ~1.8 | 1.09 | 0.77 | 1.52 | 6.96 | 2.53 |  | 0.08 | 3.47 | 8.6e-05 | 24800 |  |  |  |
| 14E1 (antibody, V domains shown, also called 14E1 (ms)) VH: QVQLVQSGAEVKKPGASVKVSCKASGYTFTSYSISWVRQAPGQGLEWMGWINTYNGNTNYAQRVQARVTMTTDTSTSTAYMELRSLRSDDTAVYYCARDHGFFFDYWGQGNLVTVSS VL: DIQLTQSPSFLSASVGDRVTITCWASQGISSYLAWYQQKPGKAPKLLIYAASTLQSGVPSRFSGSGSGTEFTLTISSLQPEDFATYYCQQLNSYPYTFGQGTQLEIK |  | 3.06 | > 50 | 0.11 | 19.2 | 0.89 | 0.91 | 1.78 | > 50 | > 50 |  | 0.02 | 64.6 | 0.00158 | 24400 | 3.68 |  |  |
| 5C3 (antibody, V domains shown) VH: QVQLQQPGAELVRPGASVKLSCKASGYTFTTYWMNWVKQRPGQGLEWIGMIDPSDSETHYNQMFKDKATLTVDTSSSTAYMQLSSLTSEDSAVYYCARGRSWFVYWGQGTLVTVSS VL: DIVLTQSPASLAVSLGQRATISCRASKSVSSSGYSYVHWYQQKPGQPPKLLIYLASNLESGVPARFSGSGSGTDFTLNIHSVEEEDAATYYCQHNRELPYTFGGGTKLEIKR |  |  |  |  |  |  |  |  |  |  |  |  |  |  |  |  | 3.37 |  |
| 15G11 (antibody, V domains shown, also called 15G11 (ms); anti-gH mAb 15G11) VH: QVQLQESGPGLVKPSQTLSLTCTVSGGSISSGYYYWNWIRQHPGKGLECIGYIYYSGTTYYNPSLKSRLFISVDTSKNQFSLKLRSVTAADTAVYYCARGGLGAFDIWGQGTMVTVSS VL: EIVLTQSPGTLSLSPGERATLSCRASQSVSSSYLAWYQQKPGQAPRLLIYGASSRAPGIPDRFSGTGSGTDFTLTISRLEPEDFAVYYCQQYGISPLTFGGGTKVEIK | > 90 | 0.09 | 0.41 | 0.24 | 0.44 | 0.5 | 0.31 | 0.51 | 3.51 | 0.87 | 0.39 | 0.01 | 2.28 | 8.69e-05 | 38200 | 0.4 |  | 0.17 |
